# The DeepSol protein solubility set
# Experiment: soluble on expression in E. coli; label from the status in PepcDB or PDB records
row,Sequence,soluble on expression in E. coli
1,MGSDKIHHHHHHMFVRVDISSLPLGKRMAQDIYDFDGHLLISKGIVVQESHLQQLRQRGYEYVYIQEEDEVNENSLNQGIAYLTDKQLPKAFSASVEGMRQMMDKVSSRHMIKLGEVEECIDLVYDHVLQTYNVLKHLQDLRNKDEYTLQHSVSVGILSIKIGQSLGLDADKLKNLGIAGLLHDIGKSMISLDIINKPGPLDDKEFKEIKKHPVYGYQIVNEIKLEDQDIPQAVLQHHEHQDGNGYPLGIRGDRINSFARIIAVADVFDALTSDRAYRPRMSLLQAVDIIIKSSCGQLDPLASRRLLSYVLDITTGEKVILSTGEEATVILKNEVDPARPLVRIGDNFLDLKTNRDVFIKDFAR,not soluble
2,MTLKFSVERLVDSEKESEEADVEEQNNLKKLEEDEEDDELCEKSGKNEPLSQTLSYFDVLLPHVQMACSNPFISGIGASGSGDQNLNTGAGGSVWQHPWLELLQSTTAAQFGDVTAGLFLQPLRKNKRIRTAFSASQLIQLEKAFEGNHYVVGNERKQLAAKLSLTETQVKVWFQNRRTKHKRVRLEGSDPNAPMSNDEDDEDDKKSVS,not soluble
3,GPGSMPRYYTPHEVRAHCFEDDAYVSINGKVLDITPLIQMYQGTRYASLLQPLILAAGTDMTHLLDKKTMDFKTCIDPETGFRTYAQPFGRFAHTPTVLPDSSIDLSYEVPWWQDERYVIGQLTRKTRKIRIVNTLNGHEHTLEVCSEETLREIVMTRYLSHNAHALSYTWRRLDSEPRDLDMDKTLDENGVLDESEEFESLGLNADYYIPALHLYYDDDLTEA,soluble
4,DDRGDFALVAGDALPQFSVEMSDGGVLNTQSFSGKVGVIVFFHTDCPDCQKELPVIQKVYDTYKENPDVLLSCISRSESGSEVQAYWEKHSFSLPFSAQNDDAVFSLFASHTIPRILITDKEGIIRAVYTDDPLATYQELAKDIDAVL,soluble
5,SNAEWESITPPVVDAPAVVEFFSFYCPPCYAFSQTMGVDQAIRHVLPQGSRMVKYHVSLLGPLGHELTRAWALAMVMKETDVIEKAFFTAGMVEKRLHSPDDVRRVFMSATGISRGEYDRSIKSPAVNDMVALQERLFKEYGVRGTPSVYVRGRYHINNAAFGAFSVENFRSRYAAVVRKLLAGNPDAD,soluble
6,VLLLDVTPLSLGIETLGGVFTRLIPRNTTIPTKKSQIFSTAAAGQTSVEIRVFQGERELVRDNKLIGNFTLAGIPPAPKGVPQIEVTFDIDADGIINVSARDKATNKDSSITVAGSSGLSENEIEQMVNDAEKFKSQDEARKQAIETANKADQLANDTENSLKEFEGKVDKAEAQKVRDQITSLKELVARVQGGEEVNAEELKTKTEELQTSSMKLFEQLYKNDSNNNNNNNGNNAESGETKQ,soluble
7,SAARRALKAVLVDLNGTLHIEDAAVPGAQEALKRLRATSVMVRFVTNTTKETKKDLLERLKKLEFEISEDEIFTSLTAARNLIEQKQVRPMLLLDDRALPEFTGVQTQDPNAVVIGLAPEHFHYQLLNQAFRLLLDGAPLIAIHKARYYKRKDGLALGPGPFVTALEYATDTKAMVVGKPEKTFFLEALRDADCAPEEAVMIGDDCRDDVDGAQNIGMLGILVKTGKYKAADEEKINPPPYLTCESFPHAVDHILQHLL,soluble
8,MAHHHHHHMCVSELRRLRGHGRNVYIIYDVAKGGTPPPRHFAPTSGWGMIVVPSPNVANYDEWAKQLQAARVIVNCPDEVDVKAICTWMKQGQDPGKQAEYWRIVEERMKRVGPILRYIFDGESYIDPLGAVNDALLAMKPSDVGEYFTLGGEKTWCSEDPCHKLVKIVRARTDEGAEVFLNASISADIGFRTADRLKKEMCARDLLLLILRSHGALASQALEKFGLRAFMYGEPVSALVKGLNELRSPERDEAQDSVLKVNHQGHPTRAVGLA,soluble
9,MYDYGTFAFASKADVLDQAKAFWNPDKTQFWTDSGVDLVIDRREGYFLWDMSGRRLIDLHLNGGTYNIGHRNPEVMQAISEGMAHFDVGNHHFPSVARTALAKRLVETAPASIKKVAFGSGGGEAIDIALKSARHGTQRRKIVSVIKAYHGHTGLAVATGDDRFAKLFLADRPDEFIQVPFGDIGAMEAALAGGDVAAVIMETIPATYGFPLPPPGYLEAVKALTERHGTLYIADEVQTGLMRTGELWGITKHGIDPDIIVTGKGLSGGMYPISAVLLGERAARWLDQDGFGHISTFGGAELGCVAAIKTLEICTRPEVRSMVHYIADIFDTGLRRIQADYPDWFVGIRQNGVVIGLEFDHPEGAKFVMRELYENGVWAIFSTLDPRVLQFKPGLLLSRELCEDVLDRLEVAVGRARATVTGRRNG,not soluble
10,MSLKWIDSHIHVDQYKDEEKSKLLKDVEHSKEIKGLIAVSMNYQSSKETVSLAKRYPFVHPAIGFHPEQPIHKEECEKIYKLIEEHVEDIVAIGEVGLPYYLRKEDKRIAVNSYISVLQRFVELASKYDLPIILHAVYEDADIVCDLLEKYKVSRAHFHWFKGSETTMKRMMRNGYYISITPDVLHKEKIRKIVSYYPLEYMMVETDGPWEFQDDVMTHPGMIREVLKEISVIKNMSVDKVMKTIYENTIQFYPTLTGNKTPTSKFDEGHHHHHH,not soluble
11,MGSDKIHHHHHHACCQGAASSGNAGKNASRVRIASNDSAKLVPDKALNDASCVLAGLPVDKASGKLYALTRTKEWKNHARYMDQIWNVFRQTAPRLVAFSQTELEDINTRCHTLFYPFGGPDFLFANAFFPEMDTYVLIGLEPAGTAPKVKHPSAETYRLYQNAVSNVLNLSFFNDMDKELANDTIDGVVPIYSLLMARGNRKIVSIQEVWLSETGDLFERKEGDTIRNTCSAGMEVRFFRPGASRLQTLYYFCTDISNEGLQANRPLQAFMDRFDAETTATFVKSASYLMHEPAFSRIRETILQKSSAVVQDDSSIPLSCFDPEVWSVTLYGTFYKPISTFSQYLQPQLRDAYQLGDPNPLNFRIGYARQSNLQVARRK,not soluble
12,MAHHHHHHMSLPIMSVVRMAVQELPLLSFAPTSLVSDGCVFLPTLSDCSAFAGCSITSATLQCDGTLLIKVVPAILRLIPLKGISSSHGYSSLAAGGSHSEAVALLKGLPTVRLQAVSPVFPLFTPGGCVEYFSATSQQTTAAVPVLTNTIREHLRRLRAYVPQHLDELVPSAPSKVSSWFVVSYPGADAVPEPCLFVLPDVLVVRTVMSQVGSRKIPPHHKRSVAVMGQSGVAKLLEELKWSGCAVRVVDDANHVCVLPPTLTAASQMKQVTH,soluble
13,MNYGNNGGGQWQPRGNNNWRPQGRGRGGGGWKGNDNRGGYRGGSSNDGGWSNFRDDGNLNFASPYQANRGNFRGNYRGGGGGGGGNQNNYGNRGRGRGGFDRGRGGGGGGNKNFGPIDANKCIIPSMWNNPWDALEKEYEQEYGVAITEKVTDPSPSPSSAEETTA,not soluble
14,MSRPRKRLAGTSGSDKGLSGKRTKTENSGEALAKVEDSNPQKTSATKNCLKNLSSHWLMKSEPESRLEKGVDVKFSIEDLKAQPKQTTCWDGVRNYQARNFLRAMKLGEEAFFYHSNCKEPGIAGLMKIVKEAYPDHTQFEKNNPHYDPSSKEDNPKWSMVDVQFVRMMKRFIPLAELKSYHQAHKATGGPLKNMVLFTRQRLSIQPLTQEEFDFVLSLEEKGPSLEHHHHHH,not soluble
15,MGSDKIHHHHHHMTRRAWTLLDGGMGRELKRIGAPFRQPEWSALALFEAPEYVTQVHRAFIAAGARVITTNSYAVVPFHIGEERFARSGRALAELSGRLARGAADEAGASVQVAGSLPPALGSYRPDLFDPARSQAIHRELICGLTPHVDFWLAETQSSLAEARAVHAALDGDGKPLWLSFTLLDPDTEHAVPLLRSGESVQQAVLLALELGASALLFNCSQPESMGAALRSARQVLKQEARELALGVYANAFPPVREDAQANDTLLDIRADLGPEAYLQWAQQWVEEGADIVGGCCGIGPEHIARLDEHLQACKQGME,not soluble
16,MKTKTARLFALTALTAATTMPLAAQVSAQEASPREATISVSGEGQAAIAPDMAILSFSVVKQAETAAAALTENSKALAEVLKALKEAAIEDRDLQTSNFSVQPLYKHYEPKDGVYVAPEITGYQVSNGLTVRVRDLKMLGTILDTSVKLGINQGGDITFTNDKPEATVTEARKQAVADAIAKAKTLTEAAGVKLGRVIQISENSQRPMPVPAGMMRASMMKEADSVPIASGENNYSVVVNVTFALDQ,not soluble
17,MVPSTFSRLKAARCLPVVLAALIFVGCGTHTPDQSTAYMQGTAQADSAFYLQQMQQSSDDTRINWQLLAIRALVKEGKTGQAVELFNQLPQELNDSQRREKTLLAVEIKLAQKDFAGAQNLLAKITPADLEQNQQARYWQAKIDASQGRPSIDLLRALIAQEPLLGAKEKQQNIDATWQALSSMTQEQANTLVINADENILQGWLDLQRVWFDNRNDPDMMKAGIADWQKRYPNNPGAKMLPTQLVNVKAFKPASTNKIALLLPLNGQAAVFGRTIQQGFEAAKNIGTQPVAAQVAAAPAADVAEQPQPQTADGVASPAQASVSDLTGDQPAAQPVPVSAPATSTAAVSAPANPSAELKIYDTSSQPLSQILSQVQQDGASIVVGPLLKNNVEELLKSNTPLNVLALNQPENIENRVNICYFALSPEDEARDAARHIRDQGKQAPLVLIPRSSLGDRVANAFAQEWQKLGGGTVLQQKFGSTSELRAGVNGGSGIALTGTPITPRATTDSGMTTNNPTLQTTPTDDQFTNNGGRVDAVYIVATPGEIAFIKPMIAMRNGSQSGATLYASSRSAQGTAGPDFRLEMEGLQYSEIPMLAGGNLPLMQQALSAVNNDYSLARMYAMGVDAWSLANHFSQMRQVQGFEINGNTGSLTANPDCVINRKLSWLQYQQGQVVPAS,soluble
18,MGSDKIHHHHHHMRFPEFSGEWKKYFIRDIAEVTKGAGISKEQRSLFGTPCILYGELYTTYKSEVINDVQSKTDIDAKNLVRSKENDVIIPSSGETAIDISTARCVPYDDVLLGGDLNIIRLYQNDGRFLSYQLNGVRKLDIARVAQGSSVIHLYGESIKSLSVSLPALKEQQKIVSLLSLIDERIATQNKIIEEYKKLKNALAELFFAKSIEYTSIGEMCDVVMGQSPSSVAYNYTKNGLPLIQGNLDIFEGVTSPRMWTSDITKQCDIGDIILTVRAPVGDVAKSNMIACVGRGVCAIKVKESGCSEYVYQYLLYFKAKWGSIEQGSTFSAISRNDILNINIPVITKRLIVASHLLALFDSEISIEALNLNVYTKQKQYLLTKMFI,not soluble
19,MDVLGALKYFRKKKKIAQKDVLPKKGKQTYRRIEIGEAKLSYEDLMTALQSLGITFNEFFFMVSDTRIMASSEVKHQIECCQMGLNNTSEKKNLIHYFYQLERNPHKNALEMSIYTDIKLTFSNDWEEIPEFDETDRMVILALISSKSYYTYYDYQMVTNPAALFSENEVLQILEQMFPVKDAELRDTQTLNVAYGFYLNIITGELYKKNYAKAREYLALVSVTTIPAEIYYIHFNLRYLKNLTYYLYTGKMRYYKEVIAVIDMIESFGDARLAEGMKKEMLQLTAGRTFNLEKGQFPLNIVTEK,not soluble
20,MLPLPTWTLSDVDAILVLSFGGPEGQQDVIPFLENVTRGRGIPRERLEEVAVHYRHFGGISPLNALNREIIGNIIEVLSSRGLEIPVYFGNRNWHPFVNDTAEKMVRDGVRNVAVFATSAWGGYSGCRQYDEDIVRMNHHLEEKELPTLNCLKLRQFFDHPLFIEEMSSVVFQAARELGISALDELQLHQKVVFTAHSIPEVANENSGRKEDGPLYSRQVYEAASLVAKHLGISQERYDVVWQSASGNGQIPWLEPDILDYAKCQHDEGVSELVVAPIGFISDHMEVVWDLDHELQDLASDLGMSISRAATVGHTDSFATMIVELVEESLGVKPHQNLGTVPSKGCSFNGEPCEVNCCKPVQRPHSAKA,not soluble
21,MRLCDRDIEAWLDEGRLSINPRPPVERINGATVDVRLGNKFRTFRGHTAAFIDLSGPKDEVSAALDRVMSDEIVLDEGEAFYLHPGELALAVTLESVTLPADLVGWLDGRSSLARLGLMVHVTAHRIDPGWSGCIVLAFYNSGKLPLALRPGMLIGALSFEPLSGPAVRPYNRREDAKYRNQQGAVASRIDKD,soluble
